Assay results as given in patent US20080220446A1, “Method for Detecting and/or Removing Protein and/or Peptide Comprising a Cross-Beta Structure From an Aqueous Solution Comprising a Protein” (priority 2005, published 2008).
Each block holds one molecule with its values, some of them ahead of it.

Legend:
tPA = tPA (Homo sapiens, UniProt P00750); assay: tPA/plasminogen activation assay; format: biochemical; settings: β2gpi exposed to cardiolipin or alkylated, 100 μg/ml
Procedure: β2-GPI was reduced and alkylated as follows. Sixhundredforty μl of β2-GPI stock was mixed with 640 μl of 8 M Urea (cooled solution) in 0.1 M Tris pH-8.2. The solution was degassed with N2 gas for approximately 6 minutes. From a 1 M DTT stock 12.8 μl was added to the solution, mixed and incubated for 3 hours at room temperature. A 1 M Iodoacetamide (Sigma; I-6125) was prepared, of which 25.6 μl was added to the β2-GPI reaction mixture. The solution was subsequently dialysed against PBS. […] Signals obtained with alkyl-β2gpi are compared with those obtained with native β2gpi starting material and with positive control acid/heat denatured amyloid-like misfolded γ-globulins.
Exiqon Peptide Immobilizer plates were blocked for 1 hour with PBS, 1% Tween20 and rinsed twice with distilled water. The conversion of the chromogenic substrate S-2251 (Chromogenix, Italy) by plasmin was kinetically measured at 37° C. on a Spectramax340 microplate reader at a wavelength of 405 nm. […] Denatured γ-globulins (100 μg/ml) with amyloid-like structure was used as reference and positive control. Lyophilized γ-globulins (Sigma, Mo., USA) were dissolved in a 1(:)1 volume ratio of 1,1,1,3,3,3-hexafluoro-2-propanol and trifluoro-acetic acid and subsequently dried under air. […]
(§1) Protein therapeutics were obtained from the local hospital pharmacy and analyzed within the expiry limits as stated by the manufacturers.

[1] = ThT fluorescence enhancement by biopharmaceuticals; format: physicochemical; settings: after alkylation of cysteine residues
Procedure: (§2) Fluorescence of ThT—protein/peptide adducts was measured as follows. […] Fluorescence was measured at 485 nm upon excitation at 435 nm. Background signals from buffer, buffer with ThT and protein/peptide solution without ThT were subtracted from corresponding measurements with protein solution incubated with ThT. Regularly, fluorescence of Aβ was used as a positive control, and fluorescence of FP10, a non-amyloid fibrin fragment^16, was used as a negative control. Fluorescence was measured in triplicate on a Hitachi F-4500 fluorescence spectrophotometer (Ltd., Tokyo, Japan).
β2-GPI was reduced and alkylated as follows. Sixhundredforty μl of β2-GPI stock was mixed with 640 μl of 8 M Urea (cooled solution) in 0.1 M Tris pH-8.2. […]
as §1
Fluorescence of Thioflavin T (ThT; Sigma T-3516, St. Louis, Mo., USA) and Congo red (CR; Aldrich Chemical Company Inc., Milwaukee, Wis., USA) was measured on a Hitachi F-4500 spectrophotometer at an excitation wavelength of 435 nm and emission wavelength of 485 nm for ThT and an excitation wavelength of 550 nm and emission wavelength of 595 nm for Congo red. […] Fluorescence was measured in triplicate. Background fluorescence of both protein in buffer and dye-solution were subtracted from the total fluorescence signal. […]

tPA F-EGF = target: T1, tPA F-EGF (Homo sapiens, UniProt P00750); assay: Affinity determination ELISA, tPA F-EGF on coated (mis)folded proteins; format: binding; settings: coated protein as labelled, relative to native control
T1 construct: made in house; host or cells: HEK293E
T1 sequence (P00750 36-120 limits assumed): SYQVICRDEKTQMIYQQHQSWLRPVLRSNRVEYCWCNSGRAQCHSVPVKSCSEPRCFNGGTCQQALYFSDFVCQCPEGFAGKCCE
From the text: (§3) Synthetic genes of human BiP, human fibronectin finger 4,5 (Fn F4,5) fragment, and human tissue-type plasminogen activator finger EGF (tPA F-EGF) fragment were ordered from Geneart (Regensburg, Germany). These DNA constructs were digested using BamHI and NotI, and ligated into vector pABC674 (ABC-expression facility, Utrecht University, The Netherlands), which contains a carboxy-terminal FLAG-tag—His-tag. HEK293E cells were transiently transfected with these constructs using the polyethylene-imine method, and grown for 5-6 days.
(§4) Denatured proteins and their native controls BSA (Sigma, A7906), glycated BSA, Hb (Sigma, H7605), glycated Hb, ovalbumin (Sigma, A6741), heat-denatured misfolded ovalbumin, human γ-globulins (Sigma, G4386), heat-denatured misfolded γ-globulins, alkyl-γ-globulins, lysozyme (ICN Biochemicals, 100831) and alkyl-lysozyme were coated on ELISA plates (Greiner Microlon high-binding, 655092) in 50 mM NaHCO3-buffer pH 9.6. The plates were blocked using Blocking reagent (Roche 1112589). […] Bound protein is detected by the FLAG-tag using 1:3000 anti-FLAG-HRP (Sigma A-8592) in PBS-T, or by 1:1000 Ni-NTA-HRP (Qiagen 34530) in PBS-T. The HRP reaction Is performed using the TMB substrate (Biosource 4501103 or Tebu Bio 101TMB100-500), stopped using 10% H2SO4 and absorbance was measured at 450 nm.

fibronectin F4,5 = target: T2, fibronectin F4,5 (Homo sapiens, UniProt P02751); assay: Affinity determination ELISA, fibronectin F4,5 on coated (mis)folded proteins; format: binding; settings: coated protein as labelled
T2 construct: human fibronectin finger 4,5 (Fn F4,5) fragment; made in house; host or cells: HEK293E
T2 sequence (P02751 182-276 limits assumed): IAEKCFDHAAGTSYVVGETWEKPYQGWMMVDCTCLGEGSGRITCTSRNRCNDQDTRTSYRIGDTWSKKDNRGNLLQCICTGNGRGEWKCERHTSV
From the text: as §3, §4

[2] = Thioflavin T fluorescence of protein solutions; format: physicochemical; settings: conclusion from ThT fluorescence, Plg-activation assay and TEM
Procedure: as §2
Formulated protein therapeutics were obtained from the local hospital pharmacy and were used as supplied by the manufacturers. […] Lyophilized therapeutics were dissolved according to the manufacturers recommendations. GH, zinc-insulin, Cealb and gelatin were stored at −20, 4, room temperature, 37 and 65° C. Other protein therapeutics were only kept at 4° C., and assayed for the presence of cross-β structure at shown time points. Enhancement in fluorescence of ThT and Congo red was measured with all formulated protein therapeutics. […]
ThT fluorescence of β2GPI was measured as follows. […] In the ThT fluorescence assay, fluorescence of β2GPI in buffer, of CL or DXS500k in buffer, of buffer and ThT alone, and of β2GPI-CL adducts and β2GPI-DXS500k adducts, with or without ThT, was recorded as described above (section ThT fluorescence). In addition, TEM images were recorded with CL, β2GPI from human plasma, with or without CL, and with recombinant β2GPI, as described^5.
To prepare structurally altered ovalbumin (OVA) with amyloid cross-β structures, purified OVA (Sigma, A-7641, lot 071k7094) was heated to 85° C. […] Native OVA (nOVA) and heat-denatured OVA (dOVA) were tested in the ThT fluorescence assay and in the Plg-activation assay. In the fluorescence assay and in the Plg-activation assay, 25 and 100 μg ml^−1 nOVA and dOVA were tested, respectively. […]
MSA (#126674, Calbiochem) was dissolved in 8 M urea, 100 mM Tris-HCl pH 8.2, at 10 mg ml^−1 final concentration. […] The presence of aggregates or fibrils was analyzed using TEM. […]

tPA, sequence (P00750 36-562): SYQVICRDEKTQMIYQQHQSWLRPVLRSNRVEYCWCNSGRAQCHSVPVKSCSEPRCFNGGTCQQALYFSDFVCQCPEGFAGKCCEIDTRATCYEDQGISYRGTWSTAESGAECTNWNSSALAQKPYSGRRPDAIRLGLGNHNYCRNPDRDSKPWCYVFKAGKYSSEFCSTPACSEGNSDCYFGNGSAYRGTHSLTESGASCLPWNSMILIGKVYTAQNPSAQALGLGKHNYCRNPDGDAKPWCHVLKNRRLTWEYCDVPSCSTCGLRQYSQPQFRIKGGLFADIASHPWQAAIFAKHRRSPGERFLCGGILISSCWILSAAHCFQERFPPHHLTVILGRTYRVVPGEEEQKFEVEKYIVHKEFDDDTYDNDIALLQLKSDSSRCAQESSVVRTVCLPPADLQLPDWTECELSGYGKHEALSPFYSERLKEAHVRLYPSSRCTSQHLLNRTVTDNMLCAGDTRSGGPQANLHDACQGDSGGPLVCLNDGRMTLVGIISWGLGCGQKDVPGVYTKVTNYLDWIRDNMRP

ability to activate tPA/plasminogen (tPA): amyloid-like properties
B1: alkyl-β2gpi: reduced and alkylated β2-glycoprotein I (protein)
chain: GRTCPKPDDLPFSTVVPLKTFYEPGEEITYSCKPGYVSRGGMRKFICPLTGLWPINTLKCTPRVCPFAGILENGAVRYTTFEYPNTISFSCNTGFYLNGADSAKCTEEGKWSPELPVCAPIICPPPSIPTFATLRVYKPSAGNNSLYRDTAVFECLPQHAMFGNDTITCTTHGNWTKLPECREVKCPFPSRPDNGFVNYPAKPTLYYKDKATFGCHDGYSLDGPEEIECTKLGNWSAMPSCKASCKVPVKKATVVYQGERVKIQEKFKNGMLHGDKVSFFCKNKEKKCSYTEDAQCIDGTIEVPKCFKEHSSLAFWKTDASDVKPC
Thioflavin T fluorescence [1]: enhanced Thioflavin T fluorescence

binding of tPA F-EGF (tPA F-EGF): Much lower binding
affinity for fibronectin F4,5 (fibronectin F4,5): clear difference in binding affinity
B2: heat-denatured OVA: ovalbumin heated to 85° C. (protein)
chain: GSIGAASMEFCFDVFKELKVHHANENIFYCPIAIMSALAMVYLGAKDSTRTQINKVVRFDKLPGFGDSIEAQCGTSVNVHSSLRDILNQITKPNDVYSFSLASRLYAEERYPILPEYLQCVKELYRGGLEPINFQTAADQARELINSWVESQTNGIIRNVLQPSSVDSQTAMVLVNAIVFKGLWEKAFKDEDTQAMPFRVTEQESKPVQMMYQIGLFRVASMASEKMKILELPFASGTMSMLVLLPDEVSGLEQLESIINFEKLTEWTSSNVMEERKIKVYLPRMKMEEKYNLTSVLMAMGITDVFSSSANLSGISSAESLKISQAVHAAHAEINEAGREVVGSAEAGVDAASVSEEFRADHPFLFCIKHIATNAVLFFGRCVSP
presence of cross-β structure conformation [2]: comprise the cross-β structure conformation
